According to publication PMC10219370, “Exploring Redox Modulation of Plant UDP-Glucose Pyrophosphorylase” (International Journal of Molecular Sciences, 2023):
Changes are numbered by the printed parent chain. Names may count otherwise.

B1: barley UGPase (Hordeum vulgare) (protein)
chain: MAAAAVAADSKIDGLRDAVAKLGEISENEKAGFISLVSRYLSGEAEQIEWSKIQTPTDEVVVPYDTLAPPPEDLDAMKALLDKLVVLKLNGGLGTTMGCTGPKSVIEVRNGFTFLDLIVIQIESLNKKYGCSVPLLLMNSFNTHDDTQKIVEKYSNSNIEIHTFNQSQYPRIVTEDFLPLPSKGQTGKDGWYPPGHGDVFPSLNNSGKLDTLLSQGKEYVFVANSDNLGAIVDIKILNHLIHNQNEYCMEVTPKTLADVKGGTLISYEGRVQLLEIAQVPDEHVDEFKSIEKFKIFNTNNLWVNLKAIKRLVDAEALKMEIIPNPKEVDGVKVLQLETAAGAAIRFFEKAIGINVPRSRFLPVKATSDLLLVQSDLYTLVDGYVIRNPARVKPSNPSIELGPEFKKVANFLARFKSIPSIVELDSLKVSGDVSFGSGVVLKGNVTIAAKAGVKLEIPDGAVLENKDINGPEDI
notes: active as monomer
B2: barley UGPase (Hordeum vulgare; C99S) (protein)
chain: B1 chain with C99S
notes: active as monomer
B3: sugarcane UGPase (Saccharum hybrid cultivar SP80-3280) (protein)
chain: MAAAAAAEVSVDEKLDKLRAEVAKLDQISENEKAGFISLVSRYLSGEAEQIEWSKIQTPTDEVVVPYDTLASPPEDLEETKKLLDKLVVLKLNGGLGTTMGCTGPKSVIEVRNGFTFLDLIVIQIESLNKKYGCSVPLLLMNSFNTHDDTQKIVEKYSNSNIEIHTFNQSQYPRIVTEDFLPLPSKGKSGKDGWYPPGHGDVFPSLNNSGKLDILLAQGKEYVFIANSDNLGAIVDIKILNHLINNQNEYCMEVTPKTLADVKGGTLISYEGRVQLLEIAQVPDEHVNEFKSIEKFKIFNTNNLWVNLKAIKRLVEAEALKMEIIPNPKEVDGVKVLQLETAAGAAIRFFDKAIGINVPRSRFLPVKATSDLLLVQSDLYTLVDGFVIRNPARANPANPSIELGPEFKKVANFLARFKSIPSIVELDSLKVSGDVWFGSGITLKGKVTITAKSGVKLEIPDGAVLENKDVNGPEDL
notes: active as monomer
B4: sugarcane UGPase (Saccharum hybrid cultivar SP80-3280; C102S) (protein)
chain: B3 chain with C102S
notes: active as monomer

Experiments:
Experiment in all cases: purified protein
purified protein [1] = substrate: O=P(O)(O)OP(=O)(O)O; assay type: biochemical, Hordeum vulgare; conditions: reduced enzyme (2 mM DTT overnight), 5 mM MgCl2, Hepes-NaOH pH 7.5, room temperature
purified protein [2] = substrate: O=c1ccn([C@@H]2O[C@H](CO[P@@](=O)(O)O[P@@](=O)(O)O[C@H]3O[C@H](CO)[C@@H](O)[C@H](O)[C@H]3O)[C@@H](O)[C@H]2O)c(=O)[nH]1; assay type: biochemical, Hordeum vulgare; conditions: reduced enzyme (2 mM DTT overnight), 5 mM MgCl2, Hepes-NaOH pH 7.5, room temperature
purified protein [3] = substrate: O=P(O)(O)OP(=O)(O)O; assay type: biochemical, Saccharum hybrid cultivar; conditions: untreated enzyme, UDPG fixed at 2 mM, 5 mM MgCl2, Hepes-NaOH pH 7.5, room temperature
purified protein [4] = substrate: O=c1ccn([C@@H]2O[C@H](CO[P@@](=O)(O)O[P@@](=O)(O)O[C@H]3O[C@H](CO)[C@@H](O)[C@H](O)[C@H]3O)[C@@H](O)[C@H]2O)c(=O)[nH]1; assay type: biochemical, Saccharum hybrid cultivar; conditions: untreated enzyme, PPi fixed at 1 mM, 5 mM MgCl2, Hepes-NaOH pH 7.5, room temperature

Protein | Km (purified protein [3]) [µM] | Km (purified protein [4]) [µM] | other results
B1 |  |  | Km (purified protein [1]; UDPG fixed at 1 mM): 30 µM; Km (purified protein [2]; PPi fixed at 1 mM): 40 µM
B2 |  |  | Km (purified protein [1]; UDPG fixed at 2 mM): 310 µM; Km (purified protein [2]; PPi fixed at 5 mM): 110 µM
B3 | 40 | 80 | 
B4 | 230 | 110 | 
